B1: Akt2 (350–481) (domain or fragment, human, UniProt P31751 350-481, looked up)
chain: FYNQDHERLFELILMEEIRFPRTLSPEAKSLLAGLLKKDPKQRLGGGPSDAKEVMEHRFFLSINWQDVVQKKLLPPFKPQVTSEVDTRYFDDEFTAQSITITPPDRYDSLGLLELDQRTHFPQFSYSASIRE
notes: The tag is therefore uncertain; source: expressed in bacteria, purified; not shown: His6, C-terminal, kept
B2: Akt2 (400–481) (domain or fragment, human, UniProt P31751 400-481, looked up)
chain: AKEVMEHRFFLSINWQDVVQKKLLPPFKPQVTSEVDTRYFDDEFTAQSITITPPDRYDSLGLLELDQRTHFPQFSYSASIRE
notes: as for B1
B3: Akt2 (400–445) maltose binding fusion protein (domain or fragment, human, UniProt P31751 400-445, looked up)
chain: AKEVMEHRFFLSINWQDVVQKKLLPPFKPQVTSEVDTRYFDDEFTA
notes: The methods name no vector for this construct
B4: Akt2 (420–445) maltose binding fusion protein (domain or fragment, human, UniProt P31751 420-445, looked up)
chain: KKLLPPFKPQVTSEVDTRYFDDEFTA
notes: as for B3

What was measured:
[1] = target: T1, recombinant human p21cip1 (human, UniProt P38936 1-164); experiment: pull-down; purified His-tagged Akt2 proteins and His-tagged p21cip1 incubated together on ice; p21cip1 immunoprecipitated with anti-p21; immunoprecipitates probed for Akt2 by Western blot; details: both partners purified
T1 construct: In the functional row this molecule stands for p21cip1 endogenous in human myoblasts; source: recombinant, purified

[2] = target: T1, recombinant human p21cip1; experiment: pull-down; MBP-tagged Akt2 peptides bound to amylose resin, incubated with p21 (1 µg and 5 µg), extensively washed, maltose-fusion peptides eluted, blotted with anti-p21; details: both partners purified

T1 sequence (P38936 whole entry): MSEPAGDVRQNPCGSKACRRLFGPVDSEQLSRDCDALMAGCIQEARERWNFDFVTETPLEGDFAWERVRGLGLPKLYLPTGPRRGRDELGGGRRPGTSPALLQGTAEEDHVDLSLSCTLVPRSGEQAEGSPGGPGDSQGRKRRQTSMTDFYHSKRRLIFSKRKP

| binding result [1] | binding result [2] | Binder |
| --- | --- | --- |
| binds |  | B1 |
| binds |  | B2 |
|  | binds | B3 |
|  | binds | B4 |

Reference: article PMC3806761, “Characterization of the Akt2 Domain Essential for Binding Nuclear p21cip1 to Promote Cell Cycle Arrest during Myogenic Differentiation” (PLoS ONE, 2013)
